This test addresses Prostate Stem Cell Antigen (PSCA) (human, UniProt O43653 12-83). The test is described as follows: flow cytometry (293T-PSCA cells). A general note: In flow cytometry, cells or beads pass a laser one at a time.

Drawing on US20230338553A1 (published 2023), this text covers Kd for 2 molecules.

Prostate Stem Cell Antigen (PSCA), sequence (O43653 12-83): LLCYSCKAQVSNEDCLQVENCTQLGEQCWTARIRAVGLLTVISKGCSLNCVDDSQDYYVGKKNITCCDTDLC

B1: scFv(h-AM1)-BAP (scFv)
scFv: DAAQPARRARRTKLGTELGSEVQLLESGGGLVQPGGSLRLSCVASGFTFSSYTMSWVRQAPGKGLEWVSYIHNGGGHTYYADSVKGRFTISRDNSKNTLYLQMNSLRAEDTAVYYCTRRMYYGNSHWYFDVWGAGTRVTITSAKTTPPSVYGGGGSGGGGSGGGGSTNSDIQMTQSPSSLSASVGDRVTITCRTSQSISNYLNWYQQKPGKAPKLLIYYTLKLNSGVPSRFSGSGSGTDFTLTISSLQPEDFATYYCQQSKTLPWTFGGGTKLEIKRADAAPTVSGPEQKLISEEDLNSAVDMSGLNDIFEAQKIEWHEGAPSSHHHHHH
modifications: mono-biotinylated at the C-terminal BAP (Bio-Tag)
On to B1, for which the affinity, expressed as Kd, was 0.744 µM. This counts as sub-micromolar.

B2: scFv(AM1)-P-BAP (scFv)
scFv: DAAQPARRARRTKLGTELGSQVKLQESGGGLVQPGGSLKLSCVASGFTFSSYTMSWVRRTPEKRLEWVAYIHNGGGHTYYPDTIKGRFTISRDNAKNTLFLEMSSLKSEDTAMYYCTRRMYYGNSHWYFDVWGAGTSVTVSSAKTTPPSVYGGGGSGGGGSGGGGSTNSDIVMTQSPSSLSASLGDRVTINCRTSQDISNYLNWYQLTPDGTVKLLIYYTLKLNSGVPSRFSGSGSGTDYSLTINNLEKEDFATYFCQQSKTLPWTFGGGTKLEIKRADAAPTVSGPKLSSKLKVTVNGTAYDVDVDVDKSHENPMGTILFGGGTGGAPAPAAGGAGAGKAGEGEIPAPLAGTVSKILVKEGDTVKAGQTVLVLEAMKMETEINAPTDGKVEKVLVKERDAVQGGQGLIKIGDLELIEGSSGPEQKLISEEDLNSAVDHHHHHH
modifications: mono-biotinylated at the C-terminal P-BAP (PSTCD biotin acceptor domain) when produced in 293T-huBirA cells
The molecule B2 came in with a Kd of 16.6 µM. This Kd lies about 22-fold higher than the previous one.

As a reminder, the Kd is the constant that tells how readily two partners part at equilibrium. The low end stands for tighter binding, the high end for weaker binding.
